{"source": "patent US20240043824A1", "about": "(UNIVERSITE DE LORRAINE, published 2024)", "proteins": {"B1": {"name": "Prx1 from Pyrococcus furiosus (Pfu-Prx) in which the cysteine residues have been mutated into serine residues (enzyme)", "chain": "MIVIGEKFPEVEVKTTHGVIKLPDHFTKQGKWFMLFSHPADFTPVSTTEFYGLQIRLEKFRELGVEPIGLSVDQVFSHLKWMEWIKEKLGVEIEFPVIADDRGDLAEKLGMIPSGSTITARAVFIVDDKGIIRAIVYYPAEVGRDWDEILRLVKALKISTEKGVALPHKWPNNELIGDKVIVPPASSVEQIKEREEAKAKGEIESYDWWFSYKKLE", "notes": "not described"}}, "molecular_target": "the molecule itself", "experiment": "ITC dilution of a 100 µM stock at 25° C.; self-association of the decamer, no CTC could be determined"}
{"protein": "B1", "values": [{"measurement": "binding result", "result": "binds"}]}
